# B1: catalase (enzyme, UniProt P00432 1-527, looked up)
# chain: MADNRDPASDQMKHWKEQRAAQKPDVLTTGGGNPVGDKLNSLTVGPRGPLLVQDVVFTDEMAHFDRERIPERVVHAKGAGAFGYFEVTHDITRYSKAKVFEHIGKRTPIAVRFSTVAGESGSADTVRDPRGFAVKFYTEDGNWDLVGNNTPIFFIRDALLFPSFIHSQKRNPQTHLKDPDMVWDFWSLRPESLHQVSFLFSDRGIPDGHRHMNGYGSHTFKLVNANGEAVYCKFHYKTDQGIKNLSVEDAARLAHEDPDYGLRDLFNAIATGNYPSWTLYIQVMTFSEAEIFPFNPFDLTKVWPHGDYPLIPVGKLVLNRNPVNYFAEVEQLAFDPSNMPPGIEPSPDKMLQGRLFAYPDTHRHRLGPNYLQIPVNCPYRARVANYQRDGPMCMMDNQGGAPNYYPNSFSAPEHQPSALEHRTHFSGDVQRFNSANDDNVTQVRTFYLKVLNEEQRKRLCENIAGHLKDAQLFIQKKAVKNFSDVHPEYGSRIQALLDKYNEEKPKNAVHTYVQHGSHLSAREKANL
# notes: Bovine liver catalase is surmised; the source is in the supplement
# B2: alcohol dehydrogenase (enzyme, UniProt P00330 1-348, looked up)
# chain: MSIPETQKGVIFYESHGKLEYKDIPVPKPKANELLINVKYSGVCHTDLHAWHGDWPLPVKLPLVGGHEGAGVVVGMGENVKGWKIGDYAGIKWLNGSCMACEYCELGNESNCPHADLSGYTHDGSFQQYATADAVQAAHIPQGTDLAQVAPILCAGITVYKALKSANLMAGHWVAISGAAGGLGSLAVQYAKAMGYRVLGIDGGEGKEELFRSIGGEVFIDFTKEKDIVGAVLKATDGGAHGVINVSVSEAAIEASTRYVRANGTTVLVGMPAGAKCCSDVFNQVVKSISIVGSYVGNRADTREALDFFARGLVKSPIKVVGLSTLPEIYEKMEKGQIVGRYVVDTSK
# notes: The tetramer mass fits S. cerevisiae ADH1; this is surmised, the source is in the supplement; also called ADH
# Target: the molecule itself
# Assay: SEC + native MS; nanoflow SEC-nMS of reference proteins: 50 nL of 1 mg mL^-1 protein injected, 200 um ID capillary SEC column, 0.5 uL min^-1, eluted with 200 mM AmAc; isCID varies by protein
row,Protein,stoichiometry N
1,B1,4
2,B2,4
